Paper PMC10042821 (2023)

B1: eukaryotic translation factor 5A-1 (eIF5A-1), residues 15-151 [human] / deoxyhypusine synthase, wild type, His-tagged [human] (parent complex)
chain 1: not shown
chain 2: MEGSLEREAPAGALAAVLKHSSTLPPESTQVRGYDFNRGVNYRALLEAFGTTGFQATNFGRAVQQVNAMIEKKLEPLSQDEDQHADLTQSRRPLTSCTIFLGYTSNLISSGIRETIRYLVQHNMVDVLVTTAGGVEEDLIKCLAPTYLGEFSLRGKELRENGINRIGNLLVPNENYCKFEDWLMPILDQMVMEQNTEGVKWTPSKMIARLGKEINNPESVYYWAQKNHIPVFSPALTDGSLGDMIFFHSYKNPGLVLDIVEDLRLINTQAIFAKCTGMIILGGGVVKHHIANANLMRNGADYAVYINTAQEFDGSDSGARPDEAVSWGKIRVDAQPVKVYADASLVFPLLVAETFAQKMDAFMHEKNED

Variants of: B1
Test: MST; read off a plot

Variant | EC50 [µM]
chain 2 I271A | ~0.05
chain 2 F272A | ~0.4

Now from value to variant:

EC50 [µM] | Variant
~2 | chain 2 S240A
~45 | chain 2 Y250A
~0.3 | chain 2 L295A
~7 | chain 2 Q83A
~0.7 | chain 2 Y176A
~12 | chain 2 M244A
~13 | chain 2 N173A

Variants of: B1
Test: MST; read off a plot
Remark: another data set of the same source

EC50 [µM] | Variant
~0.13 | chain 2 K329A
~0.6 | chain 2 W327A
~0.045 | chain 2 E137A
~0.05 | chain 2 H288A
~0.5 | chain 2 D243A

Variants of: B1
Test: MST; highest eIF5A concentration of the titration, est. 6e-5 M; read off a plot

response [fraction bound] | Variant
~0.33 | chain 2 F247A
